The supplement of paper PMC11246515
± gives the standard deviation of the averaged measurements.

Assay: total protein half-life in vivo (active degradation + dilution); higher = more stable protein
[1] = E. coli NCM3722 delta-clpP delta-lon delta-hslV, growth: N-lim chemostat, doubling time 6 h
[2] = E. coli NCM3722 delta-clpP, growth: N-lim chemostat, doubling time 6 h
[3] = E. coli NCM3722 delta-hslV, growth: N-lim chemostat, doubling time 6 h
[4] = E. coli NCM3722 delta-lon, growth: N-lim chemostat, doubling time 6 h
[5] = E. coli NCM3722 delta-smpB, growth: N-lim chemostat, doubling time 6 h
[6] = wild type E. coli NCM3722, growth: C-lim chemostat, doubling time 3 h
[7] = wild type E. coli NCM3722, growth: C-lim chemostat, doubling time 12 h
[8] = wild type E. coli NCM3722, growth: N-lim chemostat, doubling time 6 h
[9] = wild type E. coli NCM3722, growth: N-lim chemostat, doubling time 12 h
[10] = wild type E. coli NCM3722, growth: P-lim chemostat, doubling time 6 h
[11] = wild type E. coli NCM3722, growth: P-lim chemostat, doubling time 12 h
[12] = wild type E. coli NCM3722, growth: C-lim chemostat, doubling time 6 h

| Sequence | total protein half-life in vivo [1] [h] | total protein half-life in vivo [2] [h] | total protein half-life in vivo [3] [h] | total protein half-life in vivo [4] [h] | total protein half-life in vivo [5] [h] | total protein half-life in vivo [6] [h] | total protein half-life in vivo [7] [h] | total protein half-life in vivo [8] [h] | total protein half-life in vivo [9] [h] | total protein half-life in vivo [10] [h] | total protein half-life in vivo [11] [h] | total protein half-life in vivo [12] [h] |
| --- | --- | --- | --- | --- | --- | --- | --- | --- | --- | --- | --- | --- |
| MIKSALLVLEDGTQFHGRAIGATGSAVGEVVFNTSMTGYQEILTDPSYSRQIVTLTYPHIGNVGTNDADEESSQVHAQGLVIRDLPLIASNFRNTEDLSSYLKRHNIVAIADIDTRKLTRLLREKGAQNGCIIAGDNPDAALALEKARAFPGLNGMDLAKEVTTAEAYSWTQGSWTLTGGLPEAKKEDELPFHVVAYDFGAKRNILRMLVDRGCRLTIVPAQTSAEDVLKMNPDGIFLSNGPGDPAPCDYAITAIQKFLETDIPVFGICLGHQLLALASGAKTVKMKFGHHGGNHPVKDVEKNVVMITAQNHGFAVDEATLPANLRVTHKSLFDGTLQGIHRTDKPAFSFQGHPEASPGPHDAAPLFDHFIELIEQYRKTAK [P0A6F1] | 4.95 ± 1 | 4.51 ± 0.39 | 4.72 ± 0.13 | 5.36 ± 0.35 | 4.6318 ± 0.0031 | 3.18 ± 0.27 | 9.87 ± 0.035 | 4.466 ± 0.015 | 7.43 ± 0.44 | 5.95 ± 0.087 | 12.1 ± 0.28 | – |
| MIKSKIVLLSALVSCALISGCKEENKTNVSIEFMHSSVEQERQAVISKLIARFEKENPGITVKQVPVEEDAYNTKVITLSRSGSLPEVIETSHDYAKVMDKEQLIDRKAVATVISNVGEGAFYDGVLRIVRTEDGSAWTGVPVSAWIGGIWYRKDVLAKAGLEEPKNWQQLLDVAQKLNDPANKKYGIALPTAESVLTEQSFSQFALSNQANVFNAEGKITLDTPEMMQALTYYRDLTANTMPGSNDIMEVKDAFMNGTAPMAIYSTYILPAVIKEGDPKNVGFVVPTEKNSAVYGMLTSLTITAGQKTEETEAAEKFVTFMEQADNIADWVMMSPGAALPVNKAVVTTATWKDNDVIKALGELPNQLIGELPNIQVFGAVGDKNFTRMGDVTGSGVVSSMVHNVTVGKADLSTTLQASQKKLDELIEQH | 5.01 | – | – | – | – | 3 | 13.3 | – | – | – | – | 4.35 ± 1.8 |
| MIKWPWKVQESAHQTALPWQEALSIPLLTCLTEQEQSKLVTLAERFLQQKRLVPLQGFELDSLRSCRIALLFCLPVLELGLEWLDGFHEVLIYPAPFVVDDEWEDDIGLVHNQRIVQSGQSWQQGPIVLNWLDIQDSFDASGFNLIIHEVAHKLDTRNGDRASGVPFIPLREVAGWEHDLHAAMNNIQEEIELVGENAASIDAYAASDPAECFAVLSEYFFSAPELFAPRFPSLWQRFCQFYQQDPLQRLHHANDTDSFSATNVH | 4.48 ± 0.42 | 3.08 ± 0.31 | 1.36 ± 0.03 | 1.79 ± 0.075 | 1.51 ± 0.037 | 1.16 ± 0.016 | 2.19 ± 0.13 | 1.53 | 2.44 ± 0.53 | 1.76 ± 0.39 | 3.29 ± 0.75 | 1.87 ± 0.28 |
| MILERVEIVGFRGINRLSLMLEQNNVLIGENAWGKSSLLDALTLLLSPESDLYHFERDDFWFPPGDINGREHHLHIILTFRESLPGRHRVRRYRPLEACWTPCTDGYHRIFYRLEGESAEDGSVMTLRSFLDKDGHPIDVEDINDQARHLVRLMPVLRLRDARFMRRIRNGTVPNVPNVEVTARQLDFLARELSSHPQNLSDGQIRQGLSAMVQLLEHYFSEQGAGQARYRLMRRRASNEQRSWRYLDIINRMIDRPGGRSYRVILLGLFATLLQAKGTLRLDKDARPLLLIEDPETRLHPIMLSVAWHLLNLLPLQRIATTNSGELLSLTPVEHVCRLVRESSRVAAWRLGPSGLSTEDSRRISFHIRFNRPSSLFARCWLLVEGETETWVINELARQCGHHFDAEGIKVIEFAQSGLKPLVKFARRMGIEWHVLVDGDEAGKKYAATVRSLLNNDREAEREHLTALPALDMEHFMYRQGFSDVFHRMAQIPENVPMNLRKIISKAIHRSSKPDLAIEVAMEAGRRGVDSVPTLLKKMFSRVLWLARGRAD | 6.44 ± 0.23 | 2.21 | – | – | – | – | – | – | – | – | – | – |
| MILFVGFLLMEIVMPQISRTALVPYSAEQMYQLVNDVQSYPQFLPGCTGSRILESTPGQMTAAVDVSKAGISKTFTTRNQLTSNQSILMNLVDGPFKKLIGGWKFTPLSQEACRIEFHLDFEFTNKLIELAFGRVFKELAANMVQAFTVRAKEVYSAR [P0AGL5] | 0.854 ± 0.18 | 0.857 | 0.542 | 0.962 | 0.621 ± 0.022 | 0.306 | – | 0.714 | – | 0.372 | 1.13 ± 0.68 | 0.545 |
| MILHPSLASANPLHYGRELTALDNLDFGSLHLDIEDSSFINNITFGMKTVQAVARQTPHPLSFHFMLARPQRWFNALAEIRPAWIFVHAETLDYPSETLTEIRHTGARAGLVFNPATPIDAWRYLASELDGVMVMTSEPDGQGQRFIPSMCEKIQKVRTAFPQTECWADGGITLAAAQQLAAAGAQHMVIGRALFSSSDYRATLAQFATL | 5.63 ± 0.16 | – | – | – | – | – | 0.974 | – | – | – | – | 1.44 |
| MINYGVVGVGYFGAELARFMNMHDNAKITCVYDPENGENIARELQCINMSSLDALVSSKLVDCVIVATPNYLHKEPVIKAAKNKKHVFCEKPIALSYEDCVDMVKACKEAGVTFMAGHIMNFFNGVQYARKLIKEGVIGEILSCHTKRNGWENKQERLSWKKMKEQSGGHLYHHIHELDCVQHLLGEIPETVTMIGGNLAHSGPGFGNEDDMLFMTLEFPSGKLATLEWGSAFNWPEHYVIINGTKGSIKIDMQETAGSLRIGGQTKHFLVHETQEEDDDRRKGNMTSEMDGAIAYGHPGKKTPLWLASLIRKETLFLHNILCGAKPEEDYIDLLNGEAAMSAIATADAATLSRSQDRKVKISEIIKHTSVM | 5.16 | 4.32 | 4.31 ± 0.18 | 4.79 ± 0.4 | 4.29 ± 0.068 | 2.75 ± 0.66 | 11.2 ± 1.7 | 4.39 ± 0.38 | 7.48 ± 0.85 | 6.27 ± 0.24 | 13.4 ± 1.4 | 6.07 ± 0.59 |
| MIPDVSQALAWLEKHPQALKGIQRGLERETLRVNADGTLATTGHPEALGSALTHKWITTDFAEALLEFITPVDGDIEHMLTFMRDLHRYTARNMGDERMWPLSMPCYIAEGQDIELAQYGTSNTGRFKTLYREGLKNRYGALMQTISGVHYNFSLPMAFWQAKCGDISGADAKEKISAGYFRVIRNYYRFGWVIPYLFGASPAICSSFLQGKPTSLPFEKTECGMYYLPYATSLRLSDLGYTNKSQSNLGITFNDLYEYVAGLKQAIKTPSEEYAKIGIEKDGKRLQINSNVLQIENELYAPIRPKRVTRSGESPSDALLRGGIEYIEVRSLDINPFSPIGVDEQQVRFLDLFMVWCALADAPEMSSSELACTRVNWNRVILEGRKPGLTLGIGCETAQFPLPQVGKDLFRDLKRVAQTLDSINGGEAYQKVCDELVACFDNPDLTFSARILRSMIDTGIGGTGKAFAEAYRNLLREEPLEILREEDFVAEREASERRQQEMEAADTEPFAVWLEKHA [P0A6W9] | 4.67 ± 0.094 | 4.57 ± 0.48 | 4.96 ± 0.18 | 5.15 ± 0.6 | 4.55 ± 0.18 | 3.36 ± 0.2 | 9.533 ± 0.031 | 4.35 ± 0.33 | 7.2 ± 0.27 | 6.1209 ± 0.0053 | 11.4 ± 0.35 | 6.04 ± 0.38 |
